Molecular target: the molecule itself
Test: crystal structure

B1: Bacillus megaterium SirC (precorrin-2 dehydrogenase), His6-tagged (enzyme)
chain: MYTVMLDLKGRSVLVVGGGTIATRRIKGFLQEGAAITVVAPTVSAEINEWEAKGQLRVKRKKVGEEDLLNVFFIVVATNDQAVNKFVKQHIKNDQLVNMASSFSDGNIQIPAQFSRGRLSLAISTDGASPLLTKRIKEDLSSNYDESYTQYTQFLYECRVLIHRLNVSKSRKHELLTEIIDDQYRLSLVKQREFLQQIEKYK
stoichiometry N: 2

— publication PMC2857972 (The Biochemical journal, 2008)
